# Data: PMC12282641
# Legend:
# [1] = GCaMP6s imaging, 100 AP 10 Hz; settings: glycan lost; control: WT-HK1-BFP
# [2] = anti-HK1 blot of HEK293T lysates; settings: glycan lost; control: WT-HK1
# [3] = HYlight FBP sensor, axons, 100 AP 10 Hz; settings: glycan lost; control: WT-HK1-FLAG
# [4] = multi-electrode array, rat cortical neurons; settings: glycan lost; control: WT-HK1
# [5] = fractionation blots for Aldo A, PGK, PKM2, HEK293T; settings: glycan lost; control: WT-HK1 cells, response to OGT + Thiamet-G
# [6] = iATPSnFR1.0 imaging, hippocampal neurons, 100 AP 10 Hz; settings: glycan lost; control: WT-HK1-BFP
protein,measurement,setting,value
Hexokinase 1 (HK1): T259A (protein) parent chain: MIAAQLLAYYFTELKDDQVKKIDKYLYAMRLSDETLIDIMTRFRKEMKNGLSRDFNPTATVKMLPTFVRSIPDGSEKGDFIALDLGGSSFRILRVQVNHEKNQNVHMESEVYDTPENIVHGSGSQLFDHVAECLGDFMEKRKIKDKKLPVGFTFSFPCQQSKIDEAILITWTKRFKASGVEGADVVKLLNKAIKKRGDYDANIVAVVNDTVGTMMTCGYDDQHCEVGLIIGTGTNACYMEELRHIDLVEGDEGRMCINTEWGAFGDDGSLEDIRTEFDREIDRGSLNPGKQLFEKMVSGMYLGELVRLILVKMAKEGLLFEGRITPELLTRGKFNTSDVSAIEKNKEGLHNAKEILTRLGVEPSDDDCVSVQHVCTIVSFRSANLVAATLGAILNRLRDNKGTPRLRTTVGVDGSLYKTHPQYSRRFHKTLRRLVPDSDVRFLLSESGSGKGAAMVTAVAYRLAEQHRQIEETLAHFHLTKDMLLEVKKRMRAEMELGLRKQTHNNAVVKMLPSFVRRTPDGTENGDFLALDLGGTNFRVLLVKIRSGKKRTVEMHNKIYAIPIEIMQGTGEELFDHIVSCISDFLDYMGIKGPRMPLGFTFSFPCQQTSLDAGILITWTKGFKATDCVGHDVVTLLRDAIKRREEFDLDVVAVVNDTVGTMMTCAYEEPTCEVGLIVGTGSNACYMEEMKNVEMVEGDQGQMCINMEWGAFGDNGCLDDIRTHYDRLVDEYSLNAGKQRYEKMISGMYLGEIVRNILIDFTKKGFLFRGQISETLKTRGIFETKFLSQIESDRLALLQVRAILQQLGLNSTCDDSILVKTVCGVVSRRAAQLCGAGMAAVVDKIRENRGLDRLNVTVGVDGTLYKLHPHFSRIMHQTVKELSPKCNVSFLLSEDGSGKGAALITAVGVRLRTEASS,other: presynaptic calcium dynamics,[1],no change
same,expression_or_secretion,[2],no change
same,other: activity-evoked glycolysis (FBP level),[3],abolishes
same,other: neuronal network activity,[4],decreases
same,other: glycolytic enzyme recruitment to mitochondria,[5],abolishes
same,other: axonal ATP recovery after stimulation,[6],abolishes
